Experimental findings from US20240132578A1 are described below.

Test [1] addresses HIV-1 CMU02 envelope (Env) on pseudovirus (HIV-1). The experiment in a line: cell-based or functional assay.
In test [2] the target is HIV-1 Env of isolate 92UG001 (clade D pseudovirus) (HIV-1). The experiment in a line: cell-based or functional assay.
Test [3] has as its target HIV-1 Env of isolate 93UG077 (clade A pseudovirus) (HIV-1). As to the kind of experiment: cell-based or functional assay.
Test [4] has as its target HIV-1 Env of isolate APV_6, clade B (HIV-1). The experiment in a line: cell-based or functional assay.
The target in test [5] is HIV-1 Env of isolate CAAN.A2 (Acute), clade B (HIV-1). The experiment in a line: cell-based or functional assay.
For test [6], the target named is HIV-1 Env of isolate MGRM-Chronic-B-002, clade B (HIV-1). As to the kind of experiment: cell-based or functional assay.
Test [7] has as its target HIV-1 Env of isolate MGRM-D-011 (clade D pseudovirus) (HIV-1). The experiment in a line: cell-based or functional assay.
Test [8] addresses HIV-1 Env of pseudovirus MGRM-F1-004 (clade F) (HIV-1). As to the kind of experiment: cell-based or functional assay.
The target in test [9] is HIV-1 Env of pseudovirus MGRM-G-013 (HIV-1). The experiment in a line: cell-based or functional assay.
In test [10] the target is HIV-1 MGRM-AE-002 Env (pseudovirus) (HIV-1). The experiment in a line: cell-based or functional assay.
For test [11], the target named is HIV-1 MGRM-G-001 Env (pseudovirus) (HIV-1). As to the kind of experiment: cell-based or functional assay.
Test [12] concerns the target HIV-1 VLGCA1 envelope glycoprotein (Env) on pseudovirus (HIV-1 (clade A)). The experiment in a line: cell-based or functional assay.
In test [13] the target is HIV-1 envelope glycoprotein (Env) of isolate MGRM-C-023 (HIV-1). As to the kind of experiment: cell-based or functional assay.
For test [14], the target named is HIV-1 envelope glycoprotein (Env) of isolate MGRM-C-024 (HIV-1). As to the kind of experiment: cell-based or functional assay.
The target in test [15] is HIV-1 envelope glycoprotein (Env) of isolate MGRM-C-025 (HIV-1). As to the kind of experiment: cell-based or functional assay.
The target of test [16] is envelope of aMLV pseudovirus (negative control). As to the kind of experiment: cell-based or functional assay.
For test [17], the target named is HIV-1 92TH021 Env (HIV-1). As to the kind of experiment: cell-based or functional assay.
Test [18] deals with HIV-1 Env of isolate MGRM-AG-003 (pseudovirus) (HIV-1). The experiment in a line: cell-based or functional assay.
Test [19] deals with HIV-1 JR-CSF Env I423A (I4234 in the source) (HIV-1 (isolate JR-CSF)) (UniProt P20871). As to the kind of experiment: cell-based or functional assay.
Test [20] concerns the target HIV-1 JR-CSF Env I424A (HIV-1 (isolate JR-CSF)) (UniProt P20871). As to the kind of experiment: cell-based or functional assay.
The target of test [21] is HIV-1 JRCSF Env (HIV-1) (UniProt P20871). As to the kind of experiment: cell-based or functional assay.
Test [22] has as its target HIV-1 NL43 Env (HIV-1). The experiment in a line: cell-based or functional assay.
Test [23] concerns the target HIV-1 envelope glycoprotein (Env) of isolate MG RM-A-001, subtype A (HIV-1). The experiment in a line: cell-based or functional assay.
Test [24] has as its target HIV-1 envelope glycoprotein (Env) of isolate SC422661.8, on pseudovirus (HIV-1). The experiment in a line: cell-based or functional assay.
Test [25] addresses JR-FL gp120 ΔV1/ΔV2 (HIV-1 JR-FL). As to the kind of experiment: ELISA, antigen-coated wells, mAb titrated; EC50 by nonlinear regression.
The target of test [26] is HIV-1 Env of pseudovirus MGRM-F1-010 (clade F) (HIV-1). The experiment in a line: cell-based or functional assay.
The target in test [27] is HIV-1 Env of isolate 92TH021 (pseudovirus) (HIV-1). The experiment in a line: cell-based or functional assay.
Test [28] deals with HIV-1 Env of isolate VLGCA1 (pseudovirus) (HIV-1). As to the kind of experiment: cell-based or functional assay.

Sequence of 1443_C16 (PG16) (TCN-116) (antibody) (VH): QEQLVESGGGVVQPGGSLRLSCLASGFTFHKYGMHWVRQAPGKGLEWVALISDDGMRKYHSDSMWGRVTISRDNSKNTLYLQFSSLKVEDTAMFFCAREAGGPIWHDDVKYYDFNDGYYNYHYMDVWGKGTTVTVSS
Sequence of 1443_C16 (PG16) (TCN-116) (antibody) (VL): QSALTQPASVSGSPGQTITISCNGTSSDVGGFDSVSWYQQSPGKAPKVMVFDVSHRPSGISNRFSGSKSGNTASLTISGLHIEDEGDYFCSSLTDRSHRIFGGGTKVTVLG

Broadly, the IC50 is the concentration that inhibits the measured activity by half. Read a high IC50 as weaker potency in that assay. In turn, 2G12 (antibody) came in with a neutralization IC50 in [1] of over 50 µg/mL. Further, the IC50, pseudovirus neutralization in test [2] was over 50 µg/mL; in test [7], 1.5 µg/mL. For the same substance, the IC50 (µg/ml), pseudovirus neutralization was over 50 µg/mL in test [3]; 1.9 µg/mL in test [4]; over 50 µg/mL in test [5]; over 50 µg/mL in test [6]; over 50 µg/mL in [9]; over 50 µg/mL in [10]. Besides, the IC50 (µg/ml), pseudovirus neutralization in test [11], in test [12], in test [13], in test [14] and in test [15] was over 50 µg/mL in each case. For the same substance, the IC50 in test [8] and in test [16] was over 50 µg/mL throughout.

One may read the EC50 as the concentration at which the effect is half-maximal. High values mean weaker potency, low ones greater potency. As to 4858_P08 (PGT-123) (antibody), the IC50, pseudovirus neutralization is over 10 µg/mL in test [17]; 0.0423 µg/mL in test [21]; over 10 µg/mL in test [22]; over 50 µg/mL in test [23]; 0.039 µg/mL in test [24]. The substance further displayed an IC50 (µg/mL), pseudovirus neutralization in test [18] of over 50 µg/mL. Also, the Fold IC50 increase relative to wild-type (pseudovirus neutralization) in test [19] is 1.5 fold; in [20] it was 0.5 fold. The EC50 in test [25] amounted to 0.3 µg/mL.

Substance b12 (antibody) registered a neutralization IC50 in test [1] of 4.25 µg/mL. Moreover, the IC50, pseudovirus neutralization in test [2] was determined as 1.01 µg/mL; in [7] it was 7.75 µg/mL. Also, the IC50 (µg/ml), pseudovirus neutralization in [3] was 47 µg/mL; in test [4], over 50 µg/mL; in test [5], over 50 µg/mL; in test [6] it was 0.86 µg/mL; in test [9] it was over 50 µg/mL; in test [10] it was 17.1 µg/mL. For the same substance, the IC50 (µg/ml), pseudovirus neutralization in test [11] is over 50 µg/mL; in [12] it was over 50 µg/mL; in [13], 13.9 µg/mL; in test [14] it was over 50 µg/mL; in [15] it was over 50 µg/mL. The IC50 in test [8], in test [26] and in test [16] was over 50 µg/mL each time.

As for 4838_L06 (PGT-121) (antibody), the IC50, pseudovirus neutralization is over 10 µg/mL in test [17], over 10 µg/mL in test [22], over 50 µg/mL in test [23] and 0.098 µg/mL in test [24]. The substance also came in with an EC50 in [25] of 0.2 µg/mL.

In [1], 1495_C14 (PGC14) (antibody) gave a neutralization IC50 of over 50 µg/mL. Also, the IC50, pseudovirus neutralization in [2] and in test [7] was over 50 µg/mL in each case. Also, the IC50 (µg/ml), pseudovirus neutralization was over 50 µg/mL in test [3]; 23 µg/mL in test [4]; over 50 µg/mL in [5]; over 50 µg/mL in test [6]; over 50 µg/mL in [9]; over 50 µg/mL in [10]. Also, the IC50 (µg/ml), pseudovirus neutralization in [11], in test [12], in test [13], in test [14] and in test [15] was over 50 µg/mL throughout. Further, the IC50 in [8], in test [26] and in [16] was over 50 µg/mL each time.

5145_B14 (PGT-127) (antibody) came in with an IC50 (µg/mL), pseudovirus neutralization in [18] of over 50 µg/mL. Further, the Fold IC50 increase relative to wild-type (pseudovirus neutralization) in test [19] amounted to 0.5 fold; in [20], 2 fold. Moreover, the IC50, pseudovirus neutralization in test [23] is over 50 µg/mL; in [24], 36.7 µg/mL. The substance further gave a concentration for a half-maximal effect (EC50) in test [25] of 0.7 µg/mL.

4E10 (antibody) gave a neutralization IC50 in [1] of 0.59 µg/mL. Further, the IC50, pseudovirus neutralization in test [2] amounted to 13.6 µg/mL; in test [7], 0.91 µg/mL. Moreover, the IC50 (µg/ml), pseudovirus neutralization in [3] came out at 10.6 µg/mL; in [4], 1.1 µg/mL; in test [5], 17.9 µg/mL; in test [6], 2.19 µg/mL; in [9], 1.15 µg/mL; in test [10] it was 0.55 µg/mL. For the same substance, the IC50 (µg/ml), pseudovirus neutralization in [11] was found to be 2.04 µg/mL; in test [12], 4.58 µg/mL; in [13], 1.95 µg/mL; in test [14], 22.6 µg/mL; in [15] it was 5.58 µg/mL. Further, the results for the IC50 in test [8], in [26] and in test [16] were 2.74 µg/mL, 3.69 µg/mL and over 50 µg/mL, respectively.

In test [1], 1443_C16 (PG16) (TCN-116) (antibody) showed a neutralization IC50 of over 50 µg/mL. In addition, the IC50, pseudovirus neutralization in test [2] is over 50 µg/mL; in [7] it was 0.01 µg/mL. Besides, the IC50 (µg/ml), pseudovirus neutralization in test [3] is over 50 µg/mL; in test [4] it was 0.29 µg/mL; in test [5], 8.83 µg/mL; in test [6], 3.06 µg/mL; in test [9], over 50 µg/mL; in test [10], 0.01 µg/mL. For the same substance, the IC50 (µg/ml), pseudovirus neutralization amounted to 0.15 µg/mL in test [11]; 0.18 µg/mL in test [12]; 0.09 µg/mL in [13]; 0.04 µg/mL in test [14]; 0.04 µg/mL in [15]. Besides, the IC50 in test [8] is 0.43 µg/mL; in test [26], 0.01 µg/mL; in test [16] it was over 50 µg/mL.

Consider PGV04 (antibody), for which the IC50 (µg/mL), pseudovirus neutralization came to 1.29 µg/mL in test [27], 0.058 µg/mL in test [18] and 0.024 µg/mL in test [28].

As for 4877_D15 (PGT-122) (antibody), the IC50, pseudovirus neutralization is over 10 µg/mL in test [17]; 0.0727 µg/mL in [21]; over 10 µg/mL in test [22]; over 50 µg/mL in test [23]; 0.103 µg/mL in [24]. The IC50 (µg/mL), pseudovirus neutralization in test [18] is 43.7 µg/mL. Further, in test [25], the EC50 turned out to be 0.3 µg/mL.

For 5141_B17 (PGT-126) (antibody), the IC50, pseudovirus neutralization is 0.115 µg/mL in test [17]; 0.0061 µg/mL in test [21]; over 10 µg/mL in test [22]; over 50 µg/mL in [23]; 0.119 µg/mL in [24]. The IC50 (µg/mL), pseudovirus neutralization in test [18] is over 50 µg/mL. Also, the Fold IC50 increase relative to wild-type (pseudovirus neutralization) in [19] amounted to 1.1 fold; in [20] it was 0.4 fold. In test [25], this substance registered an EC50 of 0.3 µg/mL.

Consider 5123_A06 (PGT-125) (antibody), for which the IC50, pseudovirus neutralization in [17] was 0.0066 µg/mL; in test [21], 0.006 µg/mL; in [22], over 10 µg/mL; in [23], 12.4 µg/mL; in test [24], 30.1 µg/mL. In [18], this substance yielded an IC50 (µg/mL), pseudovirus neutralization of over 50 µg/mL. In addition, the values for the Fold IC50 increase relative to wild-type (pseudovirus neutralization) in test [19] and in test [20] were 5 fold and 0.7 fold, respectively. In addition, in [25], the EC50 was found to be 0.6 µg/mL.

Regarding 1496_C09 (PG9) (TCN-109) (antibody), the IC50, pseudovirus neutralization in [17] turned out to be 0.103 µg/mL; in test [2], 41.8 µg/mL; in test [7] it was 0.06 µg/mL; in [21] it was 0.0048 µg/mL; in test [22], 0.687 µg/mL. In addition, the results for the IC50 (µg/mL), pseudovirus neutralization in test [27] and in test [28] were 0.059 µg/mL and 0.069 µg/mL, respectively. Further, the IC50 (µg/ml), pseudovirus neutralization in test [4] worked out at 0.12 µg/mL; in test [5], 5.67 µg/mL; in [6], 1.41 µg/mL; in test [10], 0.04 µg/mL; in test [11] it was 0.16 µg/mL; in test [12], 0.07 µg/mL. Further, the IC50 (µg/ml), pseudovirus neutralization in [13] was 0.51 µg/mL; in test [14], 0.22 µg/mL; in test [15], 0.17 µg/mL. Besides, the IC50 in [26] was 0.03 µg/mL.
